Key:
Assay in all cases: Kinase Profiling Assay
Format in all cases: biochemical
IKKα(h) = biological target: T1, IKKα(h) (Homo sapiens, UniProt O15111)
T1 sequence (O15111 1-745): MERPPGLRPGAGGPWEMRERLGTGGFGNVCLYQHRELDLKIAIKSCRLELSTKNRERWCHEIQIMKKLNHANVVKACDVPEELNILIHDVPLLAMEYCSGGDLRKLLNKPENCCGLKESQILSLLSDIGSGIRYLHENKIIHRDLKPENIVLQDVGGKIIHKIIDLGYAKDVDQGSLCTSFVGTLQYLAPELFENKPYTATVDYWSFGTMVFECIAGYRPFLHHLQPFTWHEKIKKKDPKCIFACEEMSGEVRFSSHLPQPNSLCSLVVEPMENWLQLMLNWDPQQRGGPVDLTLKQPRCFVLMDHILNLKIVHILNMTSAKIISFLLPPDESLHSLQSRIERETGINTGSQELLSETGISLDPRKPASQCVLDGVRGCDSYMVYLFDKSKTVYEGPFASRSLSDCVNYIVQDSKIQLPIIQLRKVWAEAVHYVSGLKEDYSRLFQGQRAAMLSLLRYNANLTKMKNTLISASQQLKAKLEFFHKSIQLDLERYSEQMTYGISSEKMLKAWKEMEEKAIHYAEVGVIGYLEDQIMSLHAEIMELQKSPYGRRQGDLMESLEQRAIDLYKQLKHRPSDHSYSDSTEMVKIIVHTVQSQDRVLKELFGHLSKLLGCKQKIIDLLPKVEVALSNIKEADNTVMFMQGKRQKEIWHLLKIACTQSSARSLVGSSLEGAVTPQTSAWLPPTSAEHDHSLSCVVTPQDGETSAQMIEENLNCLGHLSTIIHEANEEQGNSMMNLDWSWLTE

MRCKα(h) = MRCKα(h) (Homo sapiens, UniProt Q5VT25)
Sequence of MRCKα(h) (Q5VT25 whole entry): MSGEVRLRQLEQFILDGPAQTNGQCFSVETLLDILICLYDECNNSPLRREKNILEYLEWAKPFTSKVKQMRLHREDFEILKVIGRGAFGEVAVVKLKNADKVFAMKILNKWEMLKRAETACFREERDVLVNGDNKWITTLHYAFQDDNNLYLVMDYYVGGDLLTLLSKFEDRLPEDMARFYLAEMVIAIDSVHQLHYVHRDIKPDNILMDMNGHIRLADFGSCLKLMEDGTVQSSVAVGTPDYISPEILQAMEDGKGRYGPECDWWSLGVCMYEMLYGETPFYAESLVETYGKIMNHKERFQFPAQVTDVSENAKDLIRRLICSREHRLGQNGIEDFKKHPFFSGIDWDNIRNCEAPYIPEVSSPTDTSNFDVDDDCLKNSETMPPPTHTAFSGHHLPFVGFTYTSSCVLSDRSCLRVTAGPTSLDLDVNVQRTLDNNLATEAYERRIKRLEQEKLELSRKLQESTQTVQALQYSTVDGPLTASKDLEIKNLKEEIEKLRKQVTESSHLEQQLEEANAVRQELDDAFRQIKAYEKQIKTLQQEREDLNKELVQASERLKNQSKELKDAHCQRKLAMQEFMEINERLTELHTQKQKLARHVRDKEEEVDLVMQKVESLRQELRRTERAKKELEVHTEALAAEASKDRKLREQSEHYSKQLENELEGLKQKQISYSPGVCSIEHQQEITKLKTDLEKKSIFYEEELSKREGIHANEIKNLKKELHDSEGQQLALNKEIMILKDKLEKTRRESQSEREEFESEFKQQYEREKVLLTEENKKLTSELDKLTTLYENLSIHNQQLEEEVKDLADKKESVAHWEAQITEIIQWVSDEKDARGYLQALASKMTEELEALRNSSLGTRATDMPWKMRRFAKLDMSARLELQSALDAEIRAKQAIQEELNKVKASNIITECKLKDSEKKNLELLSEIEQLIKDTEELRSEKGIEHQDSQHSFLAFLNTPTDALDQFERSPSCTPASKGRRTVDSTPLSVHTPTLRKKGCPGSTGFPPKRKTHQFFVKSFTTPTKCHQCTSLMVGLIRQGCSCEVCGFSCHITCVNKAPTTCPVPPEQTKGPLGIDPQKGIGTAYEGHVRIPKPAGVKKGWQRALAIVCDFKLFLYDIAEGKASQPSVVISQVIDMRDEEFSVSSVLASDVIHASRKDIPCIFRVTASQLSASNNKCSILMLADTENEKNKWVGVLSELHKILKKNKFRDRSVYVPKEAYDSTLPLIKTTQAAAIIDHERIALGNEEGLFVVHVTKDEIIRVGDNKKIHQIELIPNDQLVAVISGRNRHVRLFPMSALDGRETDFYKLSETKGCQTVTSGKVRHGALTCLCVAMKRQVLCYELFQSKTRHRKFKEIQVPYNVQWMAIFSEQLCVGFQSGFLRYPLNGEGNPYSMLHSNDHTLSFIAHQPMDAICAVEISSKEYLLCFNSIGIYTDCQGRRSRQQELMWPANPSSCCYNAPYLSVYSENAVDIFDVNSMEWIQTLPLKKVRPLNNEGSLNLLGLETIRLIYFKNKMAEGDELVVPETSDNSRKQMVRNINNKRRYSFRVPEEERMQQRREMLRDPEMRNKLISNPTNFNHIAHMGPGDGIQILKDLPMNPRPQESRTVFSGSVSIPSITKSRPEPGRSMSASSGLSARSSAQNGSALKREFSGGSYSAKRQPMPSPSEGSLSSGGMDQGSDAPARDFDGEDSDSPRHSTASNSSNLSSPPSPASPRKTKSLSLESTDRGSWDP

NLK(h) = biological target: T2, NLK(h) (Homo sapiens, UniProt Q9UBE8)
T2 sequence (Q9UBE8 1-527): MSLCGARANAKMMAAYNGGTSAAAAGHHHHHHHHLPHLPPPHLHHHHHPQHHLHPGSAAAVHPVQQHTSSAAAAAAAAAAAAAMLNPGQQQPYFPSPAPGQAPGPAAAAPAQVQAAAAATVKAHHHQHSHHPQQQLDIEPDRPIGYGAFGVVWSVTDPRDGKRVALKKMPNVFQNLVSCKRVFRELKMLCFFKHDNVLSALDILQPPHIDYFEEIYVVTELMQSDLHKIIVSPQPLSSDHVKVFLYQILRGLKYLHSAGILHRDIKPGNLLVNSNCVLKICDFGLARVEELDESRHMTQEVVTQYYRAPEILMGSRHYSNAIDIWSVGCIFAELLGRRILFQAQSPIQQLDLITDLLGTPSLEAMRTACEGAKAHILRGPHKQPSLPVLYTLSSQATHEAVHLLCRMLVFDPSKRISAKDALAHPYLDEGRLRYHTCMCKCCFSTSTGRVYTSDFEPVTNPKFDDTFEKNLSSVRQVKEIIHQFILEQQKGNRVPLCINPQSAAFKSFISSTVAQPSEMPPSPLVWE

BTK(h) = BTK(h) (Homo sapiens, UniProt Q06187); conditions: 100 μM
Sequence of BTK(h) (Q06187 whole entry): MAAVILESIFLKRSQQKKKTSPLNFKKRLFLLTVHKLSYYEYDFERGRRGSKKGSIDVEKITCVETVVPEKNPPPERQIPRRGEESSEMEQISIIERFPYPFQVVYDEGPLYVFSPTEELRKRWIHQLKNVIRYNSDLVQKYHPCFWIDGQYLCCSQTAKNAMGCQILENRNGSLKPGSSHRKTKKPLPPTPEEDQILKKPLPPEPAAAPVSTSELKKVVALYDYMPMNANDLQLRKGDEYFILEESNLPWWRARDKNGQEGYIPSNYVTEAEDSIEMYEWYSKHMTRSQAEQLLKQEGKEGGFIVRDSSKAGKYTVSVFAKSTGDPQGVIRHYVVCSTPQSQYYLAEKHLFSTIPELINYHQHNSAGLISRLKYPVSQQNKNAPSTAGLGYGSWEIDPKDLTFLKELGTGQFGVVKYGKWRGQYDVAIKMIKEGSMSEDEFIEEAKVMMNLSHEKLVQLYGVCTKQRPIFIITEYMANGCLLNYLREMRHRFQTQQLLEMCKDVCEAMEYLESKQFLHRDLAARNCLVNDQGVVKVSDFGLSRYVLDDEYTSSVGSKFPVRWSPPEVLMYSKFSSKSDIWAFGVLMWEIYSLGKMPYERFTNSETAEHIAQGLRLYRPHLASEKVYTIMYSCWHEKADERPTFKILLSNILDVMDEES

FGFR2(h) = FGFR2(h) (Homo sapiens, UniProt P21802); conditions: 100 μM
GRK7(h) = biological target: T3, GRK7(h) (Homo sapiens, UniProt Q8WTQ7); conditions: 100 μM
T3 sequence (Q8WTQ7 1-553): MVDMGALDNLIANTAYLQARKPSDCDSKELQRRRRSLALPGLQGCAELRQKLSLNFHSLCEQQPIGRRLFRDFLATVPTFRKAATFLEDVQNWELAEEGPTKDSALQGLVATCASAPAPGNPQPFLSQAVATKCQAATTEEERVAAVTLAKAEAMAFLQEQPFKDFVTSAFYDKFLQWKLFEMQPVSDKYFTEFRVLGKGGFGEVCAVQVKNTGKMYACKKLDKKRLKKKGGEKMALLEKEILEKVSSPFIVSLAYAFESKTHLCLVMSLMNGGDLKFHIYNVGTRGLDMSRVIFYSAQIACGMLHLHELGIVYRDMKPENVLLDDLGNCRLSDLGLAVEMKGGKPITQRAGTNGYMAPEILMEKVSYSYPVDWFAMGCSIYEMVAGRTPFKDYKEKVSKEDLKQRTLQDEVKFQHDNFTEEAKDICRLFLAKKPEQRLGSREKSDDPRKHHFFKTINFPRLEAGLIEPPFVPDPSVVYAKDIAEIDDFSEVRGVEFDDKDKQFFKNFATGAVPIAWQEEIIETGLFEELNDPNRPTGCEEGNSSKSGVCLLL

IR(h) = IR(h) (Homo sapiens, UniProt P06213); conditions: 100 μM
NEK11(h) = biological target: T4, NEK11(h) (Homo sapiens, UniProt Q8NG66); conditions: 100 μM
T4 sequence (Q8NG66 1-645): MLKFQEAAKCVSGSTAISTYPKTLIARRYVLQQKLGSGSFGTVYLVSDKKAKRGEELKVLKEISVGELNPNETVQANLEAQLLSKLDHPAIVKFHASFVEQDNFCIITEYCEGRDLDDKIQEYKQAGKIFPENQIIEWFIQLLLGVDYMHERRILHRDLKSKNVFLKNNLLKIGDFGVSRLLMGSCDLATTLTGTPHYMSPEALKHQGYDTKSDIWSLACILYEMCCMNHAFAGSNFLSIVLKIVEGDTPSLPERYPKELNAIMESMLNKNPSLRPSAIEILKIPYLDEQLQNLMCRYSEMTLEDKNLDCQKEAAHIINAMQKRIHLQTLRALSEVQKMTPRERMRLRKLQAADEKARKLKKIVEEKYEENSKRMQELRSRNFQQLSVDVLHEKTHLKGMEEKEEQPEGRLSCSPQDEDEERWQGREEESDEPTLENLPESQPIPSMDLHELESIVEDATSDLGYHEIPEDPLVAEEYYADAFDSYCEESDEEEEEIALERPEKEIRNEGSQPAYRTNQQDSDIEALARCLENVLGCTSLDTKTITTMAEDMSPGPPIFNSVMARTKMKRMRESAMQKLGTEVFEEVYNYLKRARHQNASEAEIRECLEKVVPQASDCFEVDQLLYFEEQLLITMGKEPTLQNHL

SAPK2b(h) = SAPK2b(h) (Homo sapiens, UniProt Q15759); conditions: 100 μM
Sequence of SAPK2b(h) (Q15759 whole entry): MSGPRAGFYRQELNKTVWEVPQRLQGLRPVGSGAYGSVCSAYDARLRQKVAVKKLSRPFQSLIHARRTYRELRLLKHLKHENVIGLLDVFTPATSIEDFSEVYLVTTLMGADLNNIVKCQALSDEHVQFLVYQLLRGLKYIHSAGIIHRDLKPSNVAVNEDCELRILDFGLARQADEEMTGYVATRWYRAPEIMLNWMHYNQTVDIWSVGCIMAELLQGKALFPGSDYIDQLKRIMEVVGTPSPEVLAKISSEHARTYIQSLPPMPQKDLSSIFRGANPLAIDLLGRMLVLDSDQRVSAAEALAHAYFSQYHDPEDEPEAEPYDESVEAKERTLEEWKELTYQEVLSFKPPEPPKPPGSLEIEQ

Row | Substance | activity at 100 µM (IKKα(h)) [%] | activity at 100 µM (MRCKα(h)) [%] | activity at 100 µM (NLK(h)) [%] | % activity (BTK(h)) [%] | % activity (FGFR2(h)) [%] | % activity (GRK7(h)) [%] | % activity (IKKα(h); 100 μM) [%] | % activity (IR(h)) [%] | % activity (MRCKα(h); 100 μM) [%] | % activity (NEK11(h)) [%] | % activity (NLK(h); 100 μM) [%] | % activity (SAPK2b(h)) [%]
1 | H-YARAAARQARAKALARQLGVAA-OH [MMI-0100] | 108 | 98 | 100 |  |  |  |  |  |  |  |  | 
2 | HRRIKAWLKKIKALARQLGVAA (Mammalian) [MMI-0500] |  |  |  | 18 | 12 | 93 | 50 | 95 | 5 | 2 | 19 | 42
3 | YARAAARQARAKALNRQLGVA (Mammalian) [MMI-0200] |  |  |  | 100 | 73 | 124 |  | 90 |  | 95 |  | 95

— patent publication US10087225B2, “Formulation of MK2 inhibitor peptides” (MOERAE MATRIX, INC., priority 2015, dated 2018)
